Test results taken from the Immune Epitope Database (IEDB).

Key:
HLA-A*02:03 [1] = assay: IEDB peptide-MHC binding, purified MHC/direct/fluorescence; filed as Kd, often an IC50 or EC50 that approximates it; ≥ and ≤ were set here for values at or beyond the usual limits of such assays
HLA-A*24:03 = assay: as above
HLA-A*68:02 = assay: as above
HLA-A*29:02 = assay: as above
HLA-A*03:01 = assay: as above
HLA-A*02:12 = assay: as above
HLA-A*02:19 = assay: as above
HLA-A*11:01 = assay: as above
HLA-A*23:01 [2] = assay: as above
HLA-A*26:01 [3] = assay: IEDB peptide-MHC binding, purified MHC/competitive/fluorescence; filed as Kd, often an IC50 or EC50 that approximates it; ≥ and ≤ were set here for values at or beyond the usual limits of such assays
HLA-B*15:17 [4] = assay: as above
HLA-A*69:01 = assay: as above
HLA-B*39:01 = assay: as above
HLA-B*46:01 [5] = assay: as above
HLA-A*02:01 [6] = assay: as above
HLA-B*51:01 = assay: as above
HLA-B*57:01 [7] = assay: as above
HLA-B*27:03 = assay: as above
HLA-B*18:01 [8] = assay: as above
HLA-A*23:01 [9] = assay: as above; conditions: source organism: Yersinia enterocolitica (type O:8)
HLA-A*02:16 = assay: IEDB peptide-MHC binding, purified MHC/direct/fluorescence; filed as Kd, often an IC50 or EC50 that approximates it; ≥ and ≤ were set here for values at or beyond the usual limits of such assays; conditions: source organism: Zaire ebolavirus
HLA-A*02:11 = assay: as above; conditions: source organism: Zaire ebolavirus
HLA-B*15:01 [10] = assay: IEDB peptide-MHC binding, purified MHC/competitive/fluorescence; filed as Kd, often an IC50 or EC50 that approximates it; ≥ and ≤ were set here for values at or beyond the usual limits of such assays; conditions: source organism: Zaire ebolavirus
HLA-B*15:17 [11] = assay: IEDB peptide-MHC binding, purified MHC/direct/fluorescence; filed as Kd, often an IC50 or EC50 that approximates it; ≥ and ≤ were set here for values at or beyond the usual limits of such assays
HLA-A*31:01 = assay: as above
HLA-B*46:01 [12] = assay: as above
HLA-A*02:01 [13] = assay: as above
HLA-A*01:01 = assay: as above
HLA-B*08:01 = assay: as above
HLA-B*40:01 [14] = assay: as above; conditions: source organism: Vibrio parahaemolyticus
HLA-A*26:02 = assay: as above
HLA-B*58:01 = assay: as above
HLA-B*08:02 = assay: as above
HLA-B*08:03 = assay: as above
HLA-B*07:02 = assay: as above
HLA-B*48:01 = assay: as above
HLA-B*27:05 = assay: as above
HLA-B*57:01 [15] = assay: as above
HLA-B*15:01 [16] = assay: as above
HLA-B*18:01 [17] = assay: as above; conditions: source organism: Vibrio parahaemolyticus
HLA-A*02:06 = assay: IEDB peptide-MHC binding, purified MHC/competitive/fluorescence; filed as Kd, often an IC50 or EC50 that approximates it; ≥ and ≤ were set here for values at or beyond the usual limits of such assays
HLA-A*26:01 [18] = assay: IEDB peptide-MHC binding, purified MHC/direct/fluorescence; filed as Kd, often an IC50 or EC50 that approximates it; ≥ and ≤ were set here for values at or beyond the usual limits of such assays; conditions: source organism: Campylobacter jejuni
HLA-A*02:03 [19] = assay: IEDB peptide-MHC binding, purified MHC/competitive/fluorescence; filed as Kd, often an IC50 or EC50 that approximates it; ≥ and ≤ were set here for values at or beyond the usual limits of such assays; conditions: source organism: Campylobacter jejuni subsp. jejuni BH-01-0142
HLA-B*40:01 [20] = assay: as above; conditions: source organism: Campylobacter jejuni subsp. jejuni BH-01-0142
[21] = source organism: Giardia lamblia ATCC 50803
[22] = source organism: Zaire ebolavirus
[23] = source organism: Vibrio parahaemolyticus
[24] = source organism: Vibrio parahaemolyticus RIMD 2210633
[25] = source organism: Campylobacter jejuni

Measured: Kd

RIYDPLWFQ
2.93 µM: HLA-A*11:01; [21]
≥ 20 µM: HLA-A*02:03 [1]; [21] | HLA-A*24:03; [21] | HLA-A*68:02; [21] | HLA-A*29:02; [21] | HLA-A*03:01; [21] | HLA-A*02:12; [21] | HLA-A*02:19; [21] | HLA-A*23:01 [2]; [21] | HLA-A*26:01 [3]; [21] | HLA-B*15:17 [4]; [21] | HLA-A*69:01; [21] | HLA-B*39:01; [21] | HLA-B*46:01 [5]; [21] | HLA-A*02:01 [6]; [21] | HLA-B*51:01; [21] | HLA-B*57:01 [7]; [21] | HLA-B*27:03; [21] | HLA-B*18:01 [8]; [21]

TYQVYRYII
≤ 0.0001 µM: HLA-A*23:01 [9]

HLSGWELAK
≥ 20 µM: HLA-A*02:16 | HLA-A*02:03 [1]; [22] | HLA-A*24:03; [22] | HLA-A*02:11 | HLA-A*68:02; [22] | HLA-A*29:02; [22] | HLA-A*02:12; [22] | HLA-A*02:19; [22] | HLA-A*23:01 [2]; [22] | HLA-A*26:01 [3]; [22] | HLA-B*15:17 [4]; [22] | HLA-A*69:01; [22] | HLA-B*39:01; [22] | HLA-B*46:01 [5]; [22] | HLA-A*02:01 [6]; [22] | HLA-B*51:01; [22] | HLA-B*57:01 [7]; [22] | HLA-B*27:03; [22] | HLA-B*15:01 [10] | HLA-B*18:01 [8]; [22]
0.148 µM: HLA-A*03:01; source organism: Sudan ebolavirus - Maleo (1979)

VFMDNAFKK
≥ 20 µM: HLA-B*15:17 [11]; [23] | HLA-B*46:01 [12]; [23] | HLA-A*02:01 [13]; [23] | HLA-A*68:02; [23] | HLA-A*01:01; [23] | HLA-B*08:01; [24] | HLA-B*40:01 [14] | HLA-A*26:02; [24] | HLA-B*58:01; [23] | HLA-B*08:02; [24] | HLA-B*08:03; [24] | HLA-B*07:02; [23] | HLA-B*48:01; [23] | HLA-B*27:05; [23] | HLA-B*57:01 [15]; [23] | HLA-B*15:01 [16]; [23] | HLA-B*18:01 [17]
1.38 µM: HLA-A*03:01; [23]
0.131 µM: HLA-A*11:01; [23]
2.21 µM: HLA-A*31:01; [23]
0.291 µM: HLA-A*02:06; [24]

VSIRGSHHK
3.19 µM: HLA-B*40:01 [20]
4.88 µM: HLA-A*31:01; [25]
3.41 µM: HLA-A*02:03 [19]
≥ 5 µM: HLA-B*15:01 [16]; [25]
0.145 µM: HLA-A*03:01; [25]
≥ 20 µM: HLA-A*26:01 [18] | HLA-B*15:17 [11]; [25] | HLA-B*46:01 [12]; [25] | HLA-A*02:01 [13]; [25] | HLA-A*68:02; [25] | HLA-A*01:01; [25] | HLA-B*08:01; [25] | HLA-A*26:02; [25] | HLA-B*58:01; [25] | HLA-B*08:02; [25] | HLA-B*08:03; [25] | HLA-B*07:02; [25] | HLA-B*48:01; [25] | HLA-B*27:05; [25] | HLA-B*57:01 [15]; [25]
5.13 µM: HLA-A*02:06; source organism: Campylobacter jejuni subsp. jejuni BH-01-0142
0.091 µM: HLA-A*11:01; [25]
